Our source for the Kd and Ka values is paper PMC9810080 (Biochemistry, 2022).

Holding throughout (assay): ITC
Experiment [1] concerns the target T1, CaM C-lobe fragment (residues 80–149) (UniProt P0DP23 80-149).
Experiment [2] addresses T1, CaM C-lobe fragment (residues 80–149). This is another data set of the same source.
In experiment [3] the target is T2, CaM N-lobe fragment (residues 1–80) (UniProt P0DP23 1-80).
Experiment [4] has as its target T2, CaM N-lobe fragment (residues 1–80). The source holds these as a separate data set.
In experiment [5] the target is Calmodulin (CaM), full-length (UniProt P0DP23 1-149).

One may read the Kd as the constant that tells how readily two partners part at equilibrium.

A value given as a limit tells only on which side of the number the result lay.

B1: CaM2^L1132E peptide (CNGB1 residues 1120–1147, L1132E) (peptide, UniProt Q14028 1120-1147, looked up)
peptide: GGKGAKGGKLAHERARLKELAALEAAAK
As to B1, in experiment [1], the Kd turned out to be 54 ± 5 µM. In experiment [2], this molecule had a Ka of 18000 M⁻¹.

B2: CaM1 peptide, CNGB1 residues 565–589 (peptide, UniProt Q14028 565-589, looked up)
peptide: NDRLQELVKLFKERTEKVKEKLIDP
In the case of B2, the Kd in experiment [1] was determined as 29 ± 5 µM; in experiment [3], 5.7 ± 1 µM. The Ka in experiment [2] was determined as 34000 M⁻¹; in experiment [4], 180000 M⁻¹.

B3: CaM1^F575E peptide (CNGB1 residues 565–589, F575E) (peptide, UniProt Q14028 565-589, looked up)
peptide: NDRLQELVKLEKERTEKVKEKLIDP
B3 had a Kd in experiment [3] of over 50 µM. The same molecule showed a Ka in experiment [4] of under 20000 M⁻¹.

B4: CaM2 peptide, CNGB1 residues 1120–1147 (peptide, UniProt Q14028 1120-1147, looked up)
peptide: GGKGAKGGKLAHLRARLKELAALEAAAK
As for B4, the Kd in experiment [1] is 0.1 ± 0.02 µM; in experiment [5], 25 ± 4 µM. Also, the Ka was 9.8e+06 M⁻¹ in experiment [2] and under 18000 M⁻¹ in experiment [4].

B5: CaM2^L1136E peptide (CNGB1 residues 1120–1147, L1136E) (peptide, UniProt Q14028 1120-1147, looked up)
peptide: GGKGAKGGKLAHLRAREKELAALEAAAK
As to B5, the Kd in experiment [1] amounted to 84 ± 10 µM. In experiment [2], the Ka came to 12000 M⁻¹.
